The results in this text go back to US10851152B2, “Polymerized peptide and gel having collagen-like structure” (WASEDA UNIVERSITY, priority 2015, dated 2020).

Format in all cases: physicochemical
A short description of data set [1]: Hydrogel formation judged by holding of a stainless ball. Set-up: key to gel formation, Time (hour) 9 / gel formation, Time (hour) 12 / gel formation, Time (hour) 15 / gel formation, Time (hour) 24 / gel formation, Time (hour) 32 / gel formation, Time (hour) 74 / gel formation, Peptide concentration 0.1% (w/v) / gel formation, Peptide concentration 0.2% (w/v) / gel formation, Peptide concentration 0.3% (w/v) / gel formation, Peptide concentration 0.5% (w/v) / gel formation, Peptide concentration 0.7% (w/v) / gel formation, Peptide concentration 1.0% (w/v): ◯: Gelated; X: Failed to gelate. Conditions: for gel-forming capability / gel formation, Time (hour) 9 / gel formation, Time (hour) 12 / gel formation, Time (hour) 15 / gel formation, Time (hour) 24 / gel formation, Time (hour) 32 / gel formation, Time (hour) 74: 1% (w/v) peptide; for gel-forming capability: 10% DMSO, up to three days; for gel formation, Time (hour) 9: 9 hour; for gel formation, Time (hour) 12: 12 hour; for gel formation, Time (hour) 15: 15 hour; for gel formation, Time (hour) 24: 24 hour; for gel formation, Time (hour) 32: 32 hour; for gel formation, Time (hour) 74: 74 hour. The method, then:
Degassed water was used to prepare a peptide solution having a concentration of 1.11% (w/v) or 1.66% (w/v), and the solution was then put into a PCR tube. After heating this solution at 80° C. for 5 min using a polymerase chain reaction (PCR) machine (TaKaRa PCR Thermal Cycler, TAKARA BIO INC.), the solution was then left to stand at 4° C. overnight. By adding DMSO and water to this solution, there was prepared a peptide solution having a concentration of 10% DMSO, 0.1 to 1.5% (w/v). The PCR tube was then filled with a mineral oil in a way such that the mineral oil covered the liquid surface, followed by allowing the solution to stand at room temperature for a given period of time to achieve a gel. Then, gel formation was determined by looking at whether a stainless ball could be held by the gel.

A short description of data set [2]: Remaining thiol group (Ellman's reagent) in oxidative polymerization reaction. Conditions: 10% DMSO, peptide 1% (w/v). The method, then:
Degassed water was used to prepare a peptide solution having a concentration of 1.11% (w/v), and the solution was then put into a PCR tube. After heating this solution at 80° C. for 5 min, it was then left to sand still at 4° C. overnight. By adding DMSO to this solution, there was prepared a peptide solution having a final concentration of 10% DMSO, peptide 1% (w/v). The PCR tube was then filled with a mineral oil in a way such that the mineral oil covered the surface of the solution. In every measurement, the mineral oil was eliminated from the peptide solution to prepare a peptide solution for oxidation monitoring. Ellman's reagent was prepared in a way such that 9 mg/ml of DTNB was present in 50 mM of a phosphate buffer solution (pH 8.4). 33 mM phosphate buffer solution (pH 8.4) and Ellman's reagent 1.5 mg/ml were left to stand for […], then a light absorbance was then measured after a solution with a final concentration of peptide 0.167 mg/ml. Recorded were changes in absorbance with time, with a moment when DMSO was added being a starting point (0 hour). Since the Ellman's reagent generates 5-mercapto-2-nitrobenzoate (λ max=412 nm, ε=1.55×10^4) depending on the amount of thiol groups (referred to as “SH groups” hereunder) in the peptide, measured was a absorbance at 412 nm. After the measurement, optical path length was compensated by measuring absorbance at 997 nm and 900 nm.
In general terms: Ellman's reagent forms a yellow product with free thiols.

A short description of data set [3]: Hydrogel stability to reduction treatment (DTT) or water with pipetting. Conditions: water added instead of reducing solution; pipetting about 90 times/min. The method, then: There, verification was made on whether gel caused a collapse by breaking the disulfide cross-linking by a reduction treatment. A reducing solution of 100 μl (100 mM DTT, 50 mM phosphate buffer solution (pH 8.4)) or water was added to the hydrogel (30 μl) prepared. […] Then, pipetting procedure was respectively performed at a frequency of about 90 times/min and a volume of 100 μl/each time, using a yellow tip (up to 200 μl).

Where [4] appears, read: oxidizing conditions: room temperature, three days.

In the case of “(POG)6PRG(POG)5CC (PPGPPGPPGPPGPPGPPGPRGPPGPPGPPGPPGPPGCC; not fully specified; hydroxyproline; MOD_RES (2)..(2) 4-Hydroxyproline; MOD_RES (5)..(5) 4-Hydroxyproline; MOD_RES (8)..(8) 4-Hydroxyproline; MOD_RES (11)..(11) 4-Hydroxyproline; MOD_RES (14)..(14) 4-Hydroxyproline; MOD_RES (17)..(17) 4-Hydroxyproline; MOD_RES (23)..(23) 4-Hydroxyproline; MOD_RES (26)..(26) 4-Hydroxyproline; MOD_RES (29)..(29) 4-Hydroxyproline; MOD_RES (32)..(32) 4-Hydroxyproline; MOD_RES (35)..(35) 4-Hydroxyproline) [CC1]”, in data set [1] (room temperature), the gel-forming capability entry is recorded as “did not turn into a gel”. Besides, the “ratio of SH amount” value in data set [2] (SH amount at 0 hour being 100%, 74 hours) is listed as “approximately 0%”.
Turning to “CCC(POG)6PRG(POG)5CCC (CCCPPGPPGPPGPPGPPGPPGPRGPPGPPGPPGPPGPPGCCC; not fully specified; hydroxyproline; MOD_RES (5)..(5) 4-Hydroxyproline; MOD_RES (8)..(8) 4-Hydroxyproline; MOD_RES (11)..(11) 4-Hydroxyproline; MOD_RES (14)..(14) 4-Hydroxyproline; MOD_RES (17)..(17) 4-Hydroxyproline; MOD_RES (20)..(20) 4-Hydroxyproline; MOD_RES (26)..(26) 4-Hydroxyproline; MOD_RES (29)..(29) 4-Hydroxyproline; MOD_RES (32)..(32) 4-Hydroxyproline; MOD_RES (35)..(35) 4-Hydroxyproline; MOD_RES (38)..(38) 4-Hydroxyprolin) [CCC2]”, in data set [1] (room temperature), the gel-forming capability result is “capable of turning into gels”. In data set [1], the “gel formation, Time (hour) 9” value is recorded as “X”; the “gel formation, Time (hour) 12” value was “X”; the “gel formation, Time (hour) 15” value was “X”; the “gel formation, Time (hour) 24” value is reported as “◯”. For the same substance, in data set [1], the “gel formation, Time (hour) 32” value is on record as “◯” and the “gel formation, Time (hour) 74” value is listed as “◯”. In addition, in data set [1] (setting [4]), the “gel formation, Peptide concentration 0.3% (w/v)” value is recorded as “X”; the “gel formation, Peptide concentration 0.5% (w/v)” value was “◯”; the “gel formation, Peptide concentration 0.7% (w/v)” value is recorded as “◯”; the “gel formation, Peptide concentration 1.0% (w/v)” value is listed as “◯”. In addition, the “time in which peptide turned into a gel” value in data set [2] was found to be 24 h. Further, the “gel collapse on adding water” value in data set [3] was “gel collapse was not observed”.
In the case of CCCC(POG)6PRG(POG)5CCGC [CCCC2], in data set [1] (room temperature), the gel-forming capability entry was “capable of turning into gels”. Besides, in data set [1], the “gel formation, Time (hour) 9” value was “X”; the “gel formation, Time (hour) 12” value is on record as “◯”; the “gel formation, Time (hour) 15” value is reported as “◯”; the “gel formation, Time (hour) 24” value is on record as “◯”. In data set [1], the “gel formation, Time (hour) 32” value is listed as “◯” and the “gel formation, Time (hour) 74” value is reported as “◯”. For the same substance, the “gel formation, Peptide concentration 0.1% (w/v)” value in data set [1] (oxidizing conditions: room temperature, three days, 0.1% (w/v)) is recorded as “X”. Besides, the “gel formation, Peptide concentration 0.2% (w/v)” value in data set [1] (oxidizing conditions: room temperature, three days, 0.2% (w/v)) is recorded as “X”. In data set [1] (setting [4]), the “gel formation, Peptide concentration 0.3% (w/v)” value is listed as “◯”; the “gel formation, Peptide concentration 0.5% (w/v)” value is “◯”; the “gel formation, Peptide concentration 0.7% (w/v)” value is given as “◯”; the “gel formation, Peptide concentration 1.0% (w/v)” value is listed as “◯”. Besides, the “concentration at which peptide still turned into a gel” value in data set [1] (room temperature, three days) is on record as 0.3 % (w/v). Further, the “time in which peptide turned into a gel” value in data set [2] was determined as 12 h. Also, in data set [3], the “gel collapse on adding water” value is reported as “gel collapse was not observed”.
For the substance “YCC(POG)6PRG(POG)5CCY (YCCPPGPPGPPGPPGPPGPPGPRGPPGPPGPPGPPGPPGCCY; not fully specified; hydroxyproline; MOD_RES (5)..(5) 4-Hydroxyproline; MOD_RES (8)..(8) 4-Hydroxyproline; MOD_RES (11)..(11) 4-Hydroxyproline; MOD_RES (14)..(14) 4-Hydroxyproline; MOD_RES (17)..(17) 4-Hydroxyproline; MOD_RES (20)..(20) 4-Hydroxyproline; MOD_RES (26)..(26) 4-Hydroxyproline; MOD_RES (29)..(29) 4-Hydroxyproline; MOD_RES (32)..(32) 4-Hydroxyproline; MOD_RES (35)..(35) 4-Hydroxyproline; MOD_RES (38)..(38) 4-Hydroxyprolin) [YCC2]”, the gel-forming capability result in data set [1] (room temperature) is “capable of turning into gels”. In data set [1], the “gel formation, Time (hour) 9” value was “X”; the “gel formation, Time (hour) 12” value is given as “X”; the “gel formation, Time (hour) 15” value is given as “X”; the “gel formation, Time (hour) 24” value was “X”. Moreover, in data set [1], the “gel formation, Time (hour) 32” value is given as “X” and the “gel formation, Time (hour) 74” value is “◯”. Moreover, in data set [1] (setting [4]), the “gel formation, Peptide concentration 0.3% (w/v)” value is “X”; the “gel formation, Peptide concentration 0.5% (w/v)” value was “X”; the “gel formation, Peptide concentration 0.7% (w/v)” value is “X”; the “gel formation, Peptide concentration 1.0% (w/v)” value was “◯”. Further, the “time in which peptide turned into a gel” value in data set [2] amounted to 74 h. In addition, the “gel collapse on adding water” value in data set [3] is reported as “gel collapse was observed”.
